From paper PMC9445180

Key:
[1] = target: HTRA2^PD/PDZ-ΔLoopA (human) (UniProt O43464); experiment: SEC; HTRA proteins and their LoopA deletion mutants alone; Superdex 200 Increase 3.2/300; 200 mM NaCl, 20 mM HEPES pH 7.5, 0.25% CHAPS; size against gel filtration standard
[2] = target: HTRA3^PD/PDZ-ΔLoopA (human) (UniProt P83110); experiment: as above

| stoichiometry N [1] | stoichiometry N [2] | Substance |
| --- | --- | --- |
| 3 | – | HTRA2^PD/PDZ-ΔLoopA (from UniProt O43464 134-458) (domain or fragment) |
| – | 3 | HTRA3^PD/PDZ-ΔLoopA (from UniProt P83110 130-453) (domain or fragment) |
